# According to patent publication US12697366B2, “Thermogenic compositions and methods” (Ohio State Innovation Foundation, priority 2016, dated 2026):
# Residues, ends and D or L forms follow the SMILES beside them. *: point of attachment. Fmoc = O=C(OCC1c2ccccc2-c2ccccc21)*; Bz = O=C(c1ccccc1)*
# B1: EFNA5: recombinant ephrin-A5 ligand protein (protein)
# chain: QDPGSKVVADRYAVYWNSSNPRFQRGDYHIDVCINDYLDVFCPHYEDSVPEDKTERYVLYMVNFDGYSACDHTSKGFKRWECNRPHSPNGPLKFSEKFQLFTPFSLGFEFRPGREYFYISSAIPDNGRRSCLKLKVFVRPTNSCMKTIGVHDRVFDVNDKVENSLEPADDTVHESAEPSRGEN
# Legend:
# [1] = test system: HT-29 colorectal cancer cells; test: Viability / cytotoxicity assay on HT-29 colorectal cancer cells; assay type: cell-based, human; details: in vitro
# [2] = test system: Brainbow (BB) mice fed a high-fat (HF) diet; test: Study 5: recombinant EFNA5 injected into iAb fat of Brainbow mice fed a HF diet; assay type: in vivo, mouse
# Method: Brainbow (BB) B6.Cg-Tg(Thy1-Brainbow1.0)HLich/J mice were purchased from The Jackson Laboratory (n=7, females). 5-week old BB mice were fed a HF for 140 days. Then mice were randomly assigned into groups injected with PBS (n=3) and recombinant EFNA5 (n=4). Mice were individually housed for all treatment periods. Mice were injected into both iAb fat depots with 100 μL PBS/iAb depot or with PBS containing recombinant EFNA5 (Life Technologies, 45 ng/mL) every other day for 1 month. Metabolic measurements were performed. WAT were collected for protein, mRNA, and histology.
# Metabolic parameters were measured by indirect calorimetry (CLAMS, Columbus Instruments, Columbus, OH) at ambient temperature (22° C.) with 12 h light/dark cycles. Animals were fed the same HF diet and water was provided ad libitum. Mice were placed individually and allowed to acclimatize in the chambers for 12 h. Oxygen consumption, CO2 production, energy expenditure, and locomotor activity were measured for at least 24 h. […] For cold exposure the temperature was changed to 4° C. for 6 h.
# Cell/tissue protein lysates normalized by protein content (BCA, ThermoFisher). Medium was collected from cells plated at similar numbers. Protein lysate or medium were separated on 10% acrylamide gel under reducing conditions. After transfer to a polyvinylidene fluoride membrane (Immobilon-P; Millipore), proteins were analyzed using an Odyssey Infrared Imaging System (LI-COR Biosciences). Peripherin and tyrosine hydroxylase polyclonal rabbit antibodies (Abcam, Cambridge, MA) were used at 1:1000 dilution.
# [3] = test system: DRG neurons; test: Neurite outgrowth of DRG neurons (ArrayScan XTI, Neuronal Profiling algorithm); assay type: cell-based, mouse; details: recombinant EFNA5 30 ng/mL, 24 hours
# Method: Single cell suspensions from cervical, thoracic, and lumbar DRG neurons were isolated from terminally anesthetized C57BL/6 adult female mice (12-16 weeks old, The Jackson Laboratory). Dissected DRGs were enzymatically digested in a solution of collagenase type 2 (200 U/mL; Sigma, St. Louis, MO) and dispase I (5 U/mL; Sigma) on a shaker for 45 min at 37° C. (Davies et al., 1999). Enzyme solution was aspirated and cells were washed twice in Hank's Balanced Salt Solution 1× (HBSS; Mediatech Inc., Manassas, VA) before incubating in DNase I type II (5 mg/mL; Worthington Biochemical, Lakewood, NJ) for 5 min at room temperature. […] The neuron-enriched pellet was resuspended in DRG culture medium (DMEM/F12, 1% N2 supplement, and 0.05% Gentamicin) and live cells were counted on a hemocytometer using trypan blue exclusion. […] Cells were automatically imaged using a Thermo Scientific™ ArrayScan™ XTI Live High Content microscope and analyzed with the Neuronal Profiling algorithm (ThermoFisher) (Lerch et al., 2014). Total neurite length, average neurite length, number of branch points, critical value, dendrite maximum, and ramification index were averaged across all neurons detected per well, with 3 wells included per treatment. […] Dendrite maximum and critical value are parameters determined based on Scholl analysis, and are automatically generated by the software. […]
# [4] = test system: 3T3-L1 adipocytes; test: Thermogenic gene expression in 3T3-L1 adipocytes (TaqMan / RT-PCR); assay type: cell-based, mouse; details: recombinant EFNA5 10 ng/mL, 4 days
# Method: FIGS. 9A to 9D show DRG neurons (500 neurons per well) cultured in DRG culture medium only, or DRG culture medium with NT-3 (1 ng/mL), with NGF (10 ng/mL), with WT secretome (1/1, v/v), or with Aldh1a1^−/− secretome (1/1, v/v) for 24 hours. WT and Aldh1a1^−/− adipocytes differentiated for 5 days. Secretome is the media collected from these cells for 24 h. Neurite outgrowth parameters were assayed using the Thermo Scientific™ ArrayScan™ XTI Live High Content microscope and analyzed with the Neuronal Profiling Algorithm (ThermoFisher). Nine independent experiments were performed using DRG from three mice. Each DRG batch was analyzed in triplicate. Data are shown as mean±SD obtained with one DRG batch. Asterisks indicate P<0.05 between different groups; Mann-Whitney U test. FIG. 9A: Representative images show ~25% of area used for the automatic quantification of neuronal parameters in FIG. 3 per one condition. […] FIG. 9B: Secreted EFNA5 levels in the medium from 3T3-L1 preadipocytes and adipocytes differentiated for 4d were analyzed by ELISA. FIG. 9C: Basal metabolic rate (heat) was measured in PBS- and EFNA5-injected mice from Table 1, Study 4 by an open circuit indirect calorimetry treadmill. […] Expression was measured by RT-PCR and normalized by 18S.
# FIGS. 11A to 11I show adipokine Ereg is bilaterally associated with obesity and thermogenesis and activates PPARα. […] FIG. 11B: Ereg expression was measured in non-differentiated and differentiated (day 5) 3T3-L1 adipocytes (Mann-Whitney test) using a customized NanoString mouse panel. FIG. 11C: Ereg expression was measured in differentiated (day 5) 3T3-L1 and Aldh1a1^−/− adipocytes by Taqman and normalized to TATA box protein (TBP). FIG. 11D: Plasma EREG concentrations were measured in mice from Study 1 by western blot. […] FIG. 11E: Plasma EREG concentrations were measured and quantified in iAb of WT and ob/ob mice from Study 2 by western blot (n=5 per each group). […] FIG. 11F: EREG was measured in iAb, subcutaneous and brown fat by western blot. […] Expression level were measured by Taqman and normalized by TBP. […]
# [5] = Study 5, BB mice, HF diet, EA5 vs PBS
Molecule,cytotoxic efficacy against human colorectal cell line [1],"metabolic rate on cold exposure ([2]; EFNA5- vs. PBS-injected mice, 4° C.)","tyrosine hydroxylase protein levels in WAT ([2]; EFNA5 vs. PBS, after 2 weeks of treatment, Western blot)","Body Wt. [2, 5]","Brown Fat [2, 5]","Sub Fat [2, 5]","iAb Fat [2, 5]",dendritic maximum and critical value in neurons [3],regulation of expression of thermogenic genes (Ucp1) [4]
NCCCC[C@H](NC(=O)OCC1c2ccccc2-c2ccccc21)C(=O)N[C@@H](Cc1ccccc1)C(=O)N[C@@H](CCCCN)C(=O)N[C@@H](CCCCNC(=O)c1ccccc1)C(N)=O [Fmoc-KFKK(Bz)-NH2] (Fmoc-KFKK(Bz)-NH2),no efficacy,–,–,–,–,–,–,–,–
B1,–,increased,increased,28.7 ± 3.2 g,0.1 ± 0.03 g,1.0 ± 0.4 g,1.2 ± 0.5 g,increased,no direct effect
